Target: the molecule itself
Assay: crystal structure

B1: ERα-L372S/L536S double-mutant ligand-binding domain (LBD, amino acid residues 298–554) (domain or fragment, UniProt P03372 298-554, looked up)
chain: IKRSKKNSLALSLTADQMVSALLDAEPPILYSEYDPTRPFSEASMMGLLTNLADRELVHMINWAKRVPGFVDLTSHDQVHLLECAWLEILMIGLVWRSMEHPGKLLFAPNLLLDRNQGKCVEGMVEIFDMLLATSSRFRMMNLQGEEFVCLKSIILLNSGVYTFLSSTLKSLEEKDHIHRVLDKITDTLIHLMAKAGLTLQQQHQRLAQLLLILSHIRHMSNKGMEHLYSMKCKNVVPSYDLLLEMLDAHRLHAPTS
binding result: binds

Source: paper doi:10.1101/2020.07.06.189977 (bioRxiv, 2020)
